Test results reported in the supplement of paper PMC9112550, “Optimization of the antimicrobial peptide Bac7 by deep mutational scanning” (BMC Biology, 2022).

System: Escherichia coli TOP10
Experiment: shrunken log2 fold change of peptide-encoding DNA abundance (4.5 h post-induction vs induction); higher = less antimicrobial activity (less host growth inhibition)
Conditions: time post-induction: 4.5 h; library: site-saturation at positions 5, 18, 19, 20
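Further: peptides expressed intracellularly from a pBAD plasmid library in pooled LB shake-flask culture, induced with 0.3% L-arabinose, DNA abundance read by NGS, three biological replicates, DESeq2 with apeglm shrinkage.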

RRIRYRPPRLPRPRPRPTPFPRP
shrunken log2 fold change: -0.27

RRIRCRPPRLPRPRPRPKPTPRP
shrunken log2 fold change: 0.128

RRIRDRPPRLPRPRPRPYWRPRP
shrunken log2 fold change: -0.0818

RRIRSRPPRLPRPRPRPRKWPRP
shrunken log2 fold change: 0.139

RRIRCRPPRLPRPRPRPHMRPRP
shrunken log2 fold change: 0.0898

RRIRTRPPRLPRPRPRPQFLPRP
shrunken log2 fold change: -0.352

RRIRNRPPRLPRPRPRPMIYPRP
shrunken log2 fold change: -0.265

RRIRRRPPRLPRPRPRPMPPPRP
shrunken log2 fold change: 0.676

RRIRSRPPRLPRPRPRPIHEPRP
shrunken log2 fold change: -0.00691

RRIRIRPPRLPRPRPRPEENPRP
shrunken log2 fold change: -0.306

RRIRHRPPRLPRPRPRPLNTPRP
shrunken log2 fold change: -0.351

RRIRMRPPRLPRPRPRPAFWPRP
shrunken log2 fold change: 0.963

RRIRTRPPRLPRPRPRPPMSPRP
shrunken log2 fold change: -0.0702

RRIRPRPPRLPRPRPRPMAQPRP
shrunken log2 fold change: 0.177

RRIRNRPPRLPRPRPRPWMYPRP
shrunken log2 fold change: 0.0204

RRIRGRPPRLPRPRPRPPWCPRP
shrunken log2 fold change: 0.491

RRIRGRPPRLPRPRPRPQCYPRP
shrunken log2 fold change: -0.0337

RRIRRRPPRLPRPRPRPFMYPRP
shrunken log2 fold change: -0.174

RRIRCRPPRLPRPRPRPGANPRP
shrunken log2 fold change: 0.385

RRIRVRPPRLPRPRPRPPLLPRP
shrunken log2 fold change: 0.287

RRIRKRPPRLPRPRPRPKWPPRP
shrunken log2 fold change: -0.031

RRIRCRPPRLPRPRPRPQAGPRP
shrunken log2 fold change: 0.109

RRIRRRPPRLPRPRPRPRAPPRP
shrunken log2 fold change: 1.02

RRIRARPPRLPRPRPRPNVLPRP
shrunken log2 fold change: 0.00594

RRIRTRPPRLPRPRPRPKGAPRP
shrunken log2 fold change: 0.351

RRIRKRPPRLPRPRPRPWMLPRP
shrunken log2 fold change: -0.266

RRIRGRPPRLPRPRPRPIATPRP
shrunken log2 fold change: 3

RRIRNRPPRLPRPRPRPGNEPRP
shrunken log2 fold change: -0.223

RRIRYRPPRLPRPRPRPPKIPRP
shrunken log2 fold change: 0.152

RRIRIRPPRLPRPRPRPCCTPRP
shrunken log2 fold change: -0.482

RRIRHRPPRLPRPRPRPDYMPRP
shrunken log2 fold change: -0.336

RRIRMRPPRLPRPRPRPWLHPRP
shrunken log2 fold change: -0.493

RRIRYRPPRLPRPRPRPFACPRP
shrunken log2 fold change: 0.0731

RRIRPRPPRLPRPRPRPVLFPRP
shrunken log2 fold change: 0.118

RRIRNRPPRLPRPRPRPQWRPRP
shrunken log2 fold change: 0.179

RRIRQRPPRLPRPRPRPGADPRP
shrunken log2 fold change: 0.47

RRIRGRPPRLPRPRPRPDWNPRP
shrunken log2 fold change: 0.361

RRIRERPPRLPRPRPRPTLQPRP
shrunken log2 fold change: 0.125

RRIRRRPPRLPRPRPRPWGRPRP
shrunken log2 fold change: 0.101

RRIRQRPPRLPRPRPRPSRGPRP
shrunken log2 fold change: 0.269

RRIRFRPPRLPRPRPRPTCGPRP
shrunken log2 fold change: 0.00559

RRIRSRPPRLPRPRPRPPCAPRP
shrunken log2 fold change: 0.497

RRIRHRPPRLPRPRPRPLVMPRP
shrunken log2 fold change: -0.0133

RRIRRRPPRLPRPRPRPNFLPRP
shrunken log2 fold change: 0.0376

RRIRFRPPRLPRPRPRPEHEPRP
shrunken log2 fold change: 0.0369

RRIRTRPPRLPRPRPRPQQRPRP
shrunken log2 fold change: -0.0699

RRIRYRPPRLPRPRPRPAGYPRP
shrunken log2 fold change: 0.0815

RRIRSRPPRLPRPRPRPIGQPRP
shrunken log2 fold change: 0.0342

RRIRVRPPRLPRPRPRPHEQPRP
shrunken log2 fold change: -0.163

RRIRFRPPRLPRPRPRPWWRPRP
shrunken log2 fold change: -0.471

RRIRPRPPRLPRPRPRPIGVPRP
shrunken log2 fold change: 0.108

RRIRIRPPRLPRPRPRPALRPRP
shrunken log2 fold change: 0.00782

RRIRPRPPRLPRPRPRPNDNPRP
shrunken log2 fold change: -0.533

RRIRDRPPRLPRPRPRPDRKPRP
shrunken log2 fold change: -0.055

RRIRCRPPRLPRPRPRPQNRPRP
shrunken log2 fold change: -0.111

RRIRQRPPRLPRPRPRPETMPRP
shrunken log2 fold change: 0.192

RRIRSRPPRLPRPRPRPFVCPRP
shrunken log2 fold change: -0.326

RRIRSRPPRLPRPRPRPIDVPRP
shrunken log2 fold change: -0.0081

RRIRIRPPRLPRPRPRPKLNPRP
shrunken log2 fold change: 0.0573

RRIRTRPPRLPRPRPRPFSKPRP
shrunken log2 fold change: 0.0087

RRIRPRPPRLPRPRPRPGHEPRP
shrunken log2 fold change: -0.202

RRIRLRPPRLPRPRPRPFIMPRP
shrunken log2 fold change: -0.79

RRIRCRPPRLPRPRPRPRSKPRP
shrunken log2 fold change: 0.0908

RRIRYRPPRLPRPRPRPYCLPRP
shrunken log2 fold change: -1.15

RRIRMRPPRLPRPRPRPTMKPRP
shrunken log2 fold change: 0.482

RRIRFRPPRLPRPRPRPVYTPRP
shrunken log2 fold change: -1.09

RRIRNRPPRLPRPRPRPSEIPRP
shrunken log2 fold change: -0.0685

RRIRTRPPRLPRPRPRPPMPPRP
shrunken log2 fold change: 0.144

RRIRTRPPRLPRPRPRPCELPRP
shrunken log2 fold change: -0.271

RRIRFRPPRLPRPRPRPGLGPRP
shrunken log2 fold change: 0.603

RRIRHRPPRLPRPRPRPQANPRP
shrunken log2 fold change: 0.0174

RRIRLRPPRLPRPRPRPSIQPRP
shrunken log2 fold change: -1.1

RRIRERPPRLPRPRPRPYEFPRP
shrunken log2 fold change: 0.00902

RRIRGRPPRLPRPRPRPIDPPRP
shrunken log2 fold change: -0.0473

RRIRYRPPRLPRPRPRPEEIPRP
shrunken log2 fold change: -0.00965

RRIRYRPPRLPRPRPRPRWGPRP
shrunken log2 fold change: 0.12

RRIRARPPRLPRPRPRPSDLPRP
shrunken log2 fold change: -0.073

RRIRARPPRLPRPRPRPLRLPRP
shrunken log2 fold change: 0.809

RRIRHRPPRLPRPRPRPVMTPRP
shrunken log2 fold change: -0.496

RRIRGRPPRLPRPRPRPMRSPRP
shrunken log2 fold change: 0.64

RRIRWRPPRLPRPRPRPTAHPRP
shrunken log2 fold change: 0.306

RRIRGRPPRLPRPRPRPWPIPRP
shrunken log2 fold change: -0.095

RRIRWRPPRLPRPRPRPALDPRP
shrunken log2 fold change: 0.553

RRIRPRPPRLPRPRPRPTATPRP
shrunken log2 fold change: 0.425

RRIRVRPPRLPRPRPRPEEYPRP
shrunken log2 fold change: -0.411

RRIRHRPPRLPRPRPRPVGFPRP
shrunken log2 fold change: -0.203

RRIRPRPPRLPRPRPRPFTSPRP
shrunken log2 fold change: -0.512

RRIRYRPPRLPRPRPRPPVTPRP
shrunken log2 fold change: -0.0969

RRIRPRPPRLPRPRPRPANNPRP
shrunken log2 fold change: -0.353

RRIRNRPPRLPRPRPRPELQPRP
shrunken log2 fold change: -0.0211

RRIRHRPPRLPRPRPRPGCTPRP
shrunken log2 fold change: -0.514

RRIRARPPRLPRPRPRPGSNPRP
shrunken log2 fold change: 0.127

RRIRDRPPRLPRPRPRPELDPRP
shrunken log2 fold change: 1.47

RRIRTRPPRLPRPRPRPYVKPRP
shrunken log2 fold change: -0.221

RRIRTRPPRLPRPRPRPMMPPRP
shrunken log2 fold change: -0.0027

RRIRKRPPRLPRPRPRPRWRPRP
shrunken log2 fold change: 0.658

RRIRFRPPRLPRPRPRPPVNPRP
shrunken log2 fold change: 0.147

RRIRERPPRLPRPRPRPEFCPRP
shrunken log2 fold change: 0.112

RRIRGRPPRLPRPRPRPENDPRP
shrunken log2 fold change: 1.74

RRIRGRPPRLPRPRPRPYAWPRP
shrunken log2 fold change: 0.0018

RRIRLRPPRLPRPRPRPEKRPRP
shrunken log2 fold change: -0.148

RRIRERPPRLPRPRPRPNVRPRP
shrunken log2 fold change: 0.0403

RRIRMRPPRLPRPRPRPKRAPRP
shrunken log2 fold change: 2.44

RRIRSRPPRLPRPRPRPNFCPRP
shrunken log2 fold change: 0.0353

RRIRFRPPRLPRPRPRPITCPRP
shrunken log2 fold change: -1.15

RRIRERPPRLPRPRPRPFHSPRP
shrunken log2 fold change: -0.256

RRIRQRPPRLPRPRPRPTPVPRP
shrunken log2 fold change: 0.286

RRIRARPPRLPRPRPRPIQMPRP
shrunken log2 fold change: 0.0579

RRIRFRPPRLPRPRPRPPAHPRP
shrunken log2 fold change: 0.613

RRIRRRPPRLPRPRPRPAESPRP
shrunken log2 fold change: 0.256

RRIRNRPPRLPRPRPRPYEPPRP
shrunken log2 fold change: -0.0287

RRIRNRPPRLPRPRPRPYANPRP
shrunken log2 fold change: 0.0782

RRIRTRPPRLPRPRPRPQLIPRP
shrunken log2 fold change: -0.222

RRIRYRPPRLPRPRPRPMCDPRP
shrunken log2 fold change: -0.987

RRIRLRPPRLPRPRPRPYTYPRP
shrunken log2 fold change: -0.235

RRIRARPPRLPRPRPRPLEAPRP
shrunken log2 fold change: 1.21

RRIRARPPRLPRPRPRPGWCPRP
shrunken log2 fold change: 0.465

RRIRKRPPRLPRPRPRPSCTPRP
shrunken log2 fold change: 0.0868

RRIRIRPPRLPRPRPRPNDMPRP
shrunken log2 fold change: -1.13

RRIRMRPPRLPRPRPRPWEPPRP
shrunken log2 fold change: 0.127

RRIRLRPPRLPRPRPRPWELPRP
shrunken log2 fold change: -0.00192

RRIRGRPPRLPRPRPRPNHIPRP
shrunken log2 fold change: -0.444

RRIRTRPPRLPRPRPRPWPEPRP
shrunken log2 fold change: 0.0147

RRIRLRPPRLPRPRPRPDRWPRP
shrunken log2 fold change: -0.0824

RRIRGRPPRLPRPRPRPEQGPRP
shrunken log2 fold change: 0.374

RRIRWRPPRLPRPRPRPQPTPRP
shrunken log2 fold change: 0.334

RRIRLRPPRLPRPRPRPPTSPRP
shrunken log2 fold change: 0.493

RRIRERPPRLPRPRPRPGLTPRP
shrunken log2 fold change: -0.174

RRIRVRPPRLPRPRPRPSASPRP
shrunken log2 fold change: -0.2

RRIRWRPPRLPRPRPRPSMEPRP
shrunken log2 fold change: 0.0397

RRIRLRPPRLPRPRPRPRRNPRP
shrunken log2 fold change: 0.0956

RRIRIRPPRLPRPRPRPWPYPRP
shrunken log2 fold change: -0.163

RRIRYRPPRLPRPRPRPFFAPRP
shrunken log2 fold change: -0.18

RRIRHRPPRLPRPRPRPNGRPRP
shrunken log2 fold change: -9.3e-05

RRIRVRPPRLPRPRPRPKWNPRP
shrunken log2 fold change: -0.172

RRIRRRPPRLPRPRPRPNAEPRP
shrunken log2 fold change: 0.0193

RRIRGRPPRLPRPRPRPWCDPRP
shrunken log2 fold change: 0.0715

RRIRIRPPRLPRPRPRPVSWPRP
shrunken log2 fold change: -0.171

RRIRIRPPRLPRPRPRPPGSPRP
shrunken log2 fold change: 0.0671

RRIRRRPPRLPRPRPRPRWGPRP
shrunken log2 fold change: 0.533

RRIRARPPRLPRPRPRPNMKPRP
shrunken log2 fold change: -0.348

RRIRFRPPRLPRPRPRPNYEPRP
shrunken log2 fold change: -0.774

RRIRERPPRLPRPRPRPDFQPRP
shrunken log2 fold change: -0.37

RRIRDRPPRLPRPRPRPVRSPRP
shrunken log2 fold change: 0.155

RRIRMRPPRLPRPRPRPMSPPRP
shrunken log2 fold change: 0.00473

RRIRWRPPRLPRPRPRPQTVPRP
shrunken log2 fold change: -0.0322

RRIRVRPPRLPRPRPRPGLRPRP
shrunken log2 fold change: 0.663

RRIRDRPPRLPRPRPRPFSLPRP
shrunken log2 fold change: -0.176

RRIRRRPPRLPRPRPRPAGMPRP
shrunken log2 fold change: 0.102

RRIRCRPPRLPRPRPRPIIMPRP
shrunken log2 fold change: -0.888
